In IntAct's records for PubMed 29467281:

B1: Unconventional myosin-VI (Homo sapiens), Q9UM54-1 (parent)
chain: MEDGKPVWAPHPTDGFQMGNIVDIGPDSLTIEPLNQKGKTFLALINQVFPAEEDSKKDVEDNCSLMYLNEATLLHNIKVRYSKDRIYTYVANILIAVNPYFDIPKIYSSEAIKSYQGKSLGTRPPHVFAIADKAFRDMKVLKMSQSIIVSGESGAGKTENTKFVLRYLTESYGTGQDIDDRIVEANPLLEAFGNAKTVRNNNSSRFGKFVEIHFNEKSSVVGGFVSHYLLEKSRICVQGKEERNYHIFYRLCAGASEDIREKLHLSSPDNFRYLNRGCTRYFANKETDKQILQNRKSPEYLKAGSMKDPLLDDHGDFIRMCTAMKKIGLDDEEKLDLFRVVAGVLHLGNIDFEEAGSTSGGCNLKNKSAQSLEYCAELLGLDQDDLRVSLTTRVMLTTAGGTKGTVIKVPLKVEQANNARDALAKTVYSHLFDHVVNRVNQCFPFETSSYFIGVLDIAGFEYFEHNSFEQFCINYCNEKLQQFFNERILKEEQELYQKEGLGVNEVHYVDNQDCIDLIEAKLVGILDILDEENRLPQPSDQHFTSAVHQKHKDHFRLTIPRKSKLAVHRNIRDDEGFIIRHFAGAVCYETTQFVEKNNDALHMSLESLICESRDKFIRELFESSTNNNKDTKQKAGKLSFISVGNKFKTQLNLLLDKLRSTGASFIRCIKPNLKMTSHHFEGAQILSQLQCSGMVSVLDLMQGGYPSRASFHELYNMYKKYMPDKLARLDPRLFCKALFKALGLNENDYKFGLTKVFFRPGKFAEFDQIMKSDPDHLAELVKRVNHWLTCSRWKKVQWCSLSVIKLKNKIKYRAEACIKMQKTIRMWLCKRRHKPRIDGLVKVGTLKKRLDKFNEVVSVLKDGKPEMNKQIKNLEISIDTLMAKIKSTMMTQEQIQKEYDALVKSSEELLSALQKKKQQEEEAERLRRIQEEMEKERKRREEDEKRRRKEEEERRMKLEMEAKRKQEEEERKKREDDEKRIQAEVEAQLARQKEEESQQQAVLEQERRDRELALRIAQSEAELISDEAQADLALRRNDGTRPKMTPEQMAKEMSEFLSRGPAVLATKAAAGTKKYDLSKWKYAELRDTINTSCDIELLAACREEFHRRLKVYHAWKSKNKKRNTETEQRAPKSVTDYDFAPFLNNSPQQNPAAQIPARQREIEMNRQQRFFRIPFIRPADQYKDPQSKKKGWWYAHFDGPWIARQMELHPDKPPILLVAGKDDMEMCELNLEETGLTRKRGAEILPRQFEEIWERCGGIQYLQNAIESRQARPTYATAMLQSLLK
partner: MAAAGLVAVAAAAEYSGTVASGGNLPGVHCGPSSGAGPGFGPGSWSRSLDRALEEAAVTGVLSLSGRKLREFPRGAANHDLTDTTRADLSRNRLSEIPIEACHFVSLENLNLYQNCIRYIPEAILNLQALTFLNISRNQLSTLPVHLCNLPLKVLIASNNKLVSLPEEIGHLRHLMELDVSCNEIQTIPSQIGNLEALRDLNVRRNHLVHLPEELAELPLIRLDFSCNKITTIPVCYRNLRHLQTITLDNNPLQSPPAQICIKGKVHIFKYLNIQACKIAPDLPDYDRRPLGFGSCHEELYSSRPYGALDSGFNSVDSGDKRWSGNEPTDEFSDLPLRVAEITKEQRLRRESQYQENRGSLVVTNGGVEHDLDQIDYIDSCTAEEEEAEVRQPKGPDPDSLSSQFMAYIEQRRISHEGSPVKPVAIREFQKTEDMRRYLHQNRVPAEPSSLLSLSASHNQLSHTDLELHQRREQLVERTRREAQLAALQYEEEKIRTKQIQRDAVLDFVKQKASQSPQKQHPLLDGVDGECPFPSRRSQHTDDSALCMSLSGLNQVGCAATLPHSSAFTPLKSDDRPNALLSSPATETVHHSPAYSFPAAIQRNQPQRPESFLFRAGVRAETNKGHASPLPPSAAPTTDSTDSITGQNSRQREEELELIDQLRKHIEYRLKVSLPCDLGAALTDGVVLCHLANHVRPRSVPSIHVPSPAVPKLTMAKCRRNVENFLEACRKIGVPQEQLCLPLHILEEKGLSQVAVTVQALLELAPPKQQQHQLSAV

Variants of: B1
Conditions: with lrch3_human LRCH3, Q96II8
In the case of W1192L, the “effect of a mutation on the interaction” value is reported as “disrupting interaction strength”. R1107A;R1108A;L1109A was tested, and the “effect of a mutation on the interaction” value was “disrupting interaction strength”.
